The record followed here is paper PMC8254717, “Characterization of the DdrD protein from the extremely radioresistant bacterium Deinococcus radiodurans”.

For series [1], the target named is T1, DdrD (Deinococcus radiodurans R1 (ATCC 13939), UniProt Q9RXI7 1-198).
T1 sequence: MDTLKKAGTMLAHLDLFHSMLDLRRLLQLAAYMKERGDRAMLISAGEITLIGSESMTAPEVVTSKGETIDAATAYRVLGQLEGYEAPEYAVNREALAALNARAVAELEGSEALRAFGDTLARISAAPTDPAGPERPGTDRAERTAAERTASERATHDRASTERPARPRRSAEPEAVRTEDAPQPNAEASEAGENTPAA
In words: EMSA; 5 mM Mg2+; DdrD up to 8 uM; not completely shifted at highest concentration; proteinase K releases DNA; EMSA: 40 mM Tris-HCl pH 7.8, 5 mM MgCl2, 1.5 mM DTT, 50 mM NaCl, 2.5% glycerol, 3.3 nM DNA, 15 min at 4 C; 6% native PAGE in 0.25X TBE with 10% glycerol. Conditions: protein: recombinant; tags: none (untagged; native stop codon in reverse primer, pET21a NdeI/EcoRI); label: 5' Cy5.

For series [2], the target named is T1, DdrD. In words: EMSA; 5 mM Mg2+; same DdrD concentrations as oligo 1; EMSA: 40 mM Tris-HCl pH 7.8, 5 mM MgCl2, 1.5 mM DTT, 50 mM NaCl, 2.5% glycerol, 3.3 nM DNA, 15 min at 4 C; 6% native PAGE in 0.25X TBE with 10% glycerol. As to conditions: protein: recombinant; tags: none (untagged; native stop codon in reverse primer, pET21a NdeI/EcoRI); label: 5' Cy5 on strand 1; blunt.

B1: oligo 1 (67-mer ssDNA) (ssDNA)
DNA: CTGTTTAAGAAATTCACCTCGAAAGCAAGCTGATAAACCGATACAATTAAAGGCTCCTTTTGGAGCC
On to B1, for which the binding result in the series with DdrD [1] is on record as “binds”.

B2: oligo 2 (67-mer dsDNA) (dsDNA)
DNA 1: CTGTTTAAGAAATTCACCTCGAAAGCAAGCTGATAAACCGATACAATTAAAGGCTCCTTTTGGAGCC
DNA 2: GGCTCCAAAAGGAGCCTTTAATTGTATCGGTTTATCAGCTTGCTTTCGAGGTGAATTTCTTAAACAG
On to B2, for which the binding result with DdrD [2] is listed as “no binding”.
